Measured values as given in the supplement of paper PMC6379048.

Experiments:
Assay in all cases: Kd (EC50 corrected by depletion factor)
RBMS3 = target: T1, RBMS3 (UniProt Q6XE24)
T1 sequence: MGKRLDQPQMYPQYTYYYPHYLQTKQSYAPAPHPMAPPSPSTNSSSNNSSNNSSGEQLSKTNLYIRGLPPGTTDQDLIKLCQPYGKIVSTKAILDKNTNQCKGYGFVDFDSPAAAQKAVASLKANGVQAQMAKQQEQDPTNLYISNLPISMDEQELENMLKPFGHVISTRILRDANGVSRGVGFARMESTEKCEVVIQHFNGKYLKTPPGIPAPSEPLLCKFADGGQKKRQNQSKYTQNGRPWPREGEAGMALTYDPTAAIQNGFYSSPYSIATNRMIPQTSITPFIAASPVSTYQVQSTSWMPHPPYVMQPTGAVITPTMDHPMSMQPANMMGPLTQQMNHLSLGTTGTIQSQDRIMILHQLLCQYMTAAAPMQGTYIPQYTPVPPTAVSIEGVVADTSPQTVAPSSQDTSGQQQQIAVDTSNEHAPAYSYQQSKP
In short: (§1)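 HEK293-FT lysate (2.5 mg protein/well) was pre-incubated 1 h at 4°C with free RNA oligos (0 nM to 30 μM), then 30 min at 4°C with the same 5′-amino-C6 oligos coupled to NHS-Sepharose beads. Bound proteins were quantified by label-free LC-MS/MS in three biological replicates and two independent experiments, and normalised to the water control. EC50 came from a four-parameter log-logistic fit; Kd is EC50 times a protein-dependent depletion factor.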

RBMS1 = target: T2, RBMS1 (UniProt P29558)
T2 sequence: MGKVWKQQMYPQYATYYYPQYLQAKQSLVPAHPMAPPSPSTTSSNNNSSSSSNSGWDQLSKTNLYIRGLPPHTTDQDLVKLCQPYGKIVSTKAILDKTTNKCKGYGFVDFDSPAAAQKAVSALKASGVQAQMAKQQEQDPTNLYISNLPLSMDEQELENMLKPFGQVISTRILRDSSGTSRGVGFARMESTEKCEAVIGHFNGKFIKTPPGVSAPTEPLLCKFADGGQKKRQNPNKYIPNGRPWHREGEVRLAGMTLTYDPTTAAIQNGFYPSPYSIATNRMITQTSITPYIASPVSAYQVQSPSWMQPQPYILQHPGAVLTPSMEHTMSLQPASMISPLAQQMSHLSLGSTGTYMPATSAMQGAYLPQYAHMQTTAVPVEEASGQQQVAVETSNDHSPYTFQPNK
In short: as §1

MEX3A = target: T3, MEX3A (UniProt A1L020)
T3 sequence: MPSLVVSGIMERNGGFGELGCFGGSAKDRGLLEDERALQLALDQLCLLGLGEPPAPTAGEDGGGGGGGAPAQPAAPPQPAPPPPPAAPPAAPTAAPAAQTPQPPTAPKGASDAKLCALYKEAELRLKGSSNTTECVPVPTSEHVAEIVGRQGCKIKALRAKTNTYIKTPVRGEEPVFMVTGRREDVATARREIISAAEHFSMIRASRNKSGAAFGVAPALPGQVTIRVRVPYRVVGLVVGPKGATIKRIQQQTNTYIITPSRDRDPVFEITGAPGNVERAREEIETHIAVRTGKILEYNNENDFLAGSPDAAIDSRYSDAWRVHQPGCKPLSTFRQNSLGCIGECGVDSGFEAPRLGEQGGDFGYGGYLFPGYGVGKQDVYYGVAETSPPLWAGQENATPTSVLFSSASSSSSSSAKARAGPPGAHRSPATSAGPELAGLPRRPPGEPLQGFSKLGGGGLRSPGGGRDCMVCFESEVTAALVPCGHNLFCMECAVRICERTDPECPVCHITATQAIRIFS
In short: as §1

LSM4 = target: T4, LSM4 (UniProt Q9Y4Z0)
T4 sequence: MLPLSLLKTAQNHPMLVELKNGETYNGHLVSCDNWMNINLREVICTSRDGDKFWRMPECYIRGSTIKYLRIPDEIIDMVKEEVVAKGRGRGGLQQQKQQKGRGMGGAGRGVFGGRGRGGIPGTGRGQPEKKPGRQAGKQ
In short: as §1

RBMS2 = target: T5, RBMS2 (UniProt Q15434)
T5 sequence: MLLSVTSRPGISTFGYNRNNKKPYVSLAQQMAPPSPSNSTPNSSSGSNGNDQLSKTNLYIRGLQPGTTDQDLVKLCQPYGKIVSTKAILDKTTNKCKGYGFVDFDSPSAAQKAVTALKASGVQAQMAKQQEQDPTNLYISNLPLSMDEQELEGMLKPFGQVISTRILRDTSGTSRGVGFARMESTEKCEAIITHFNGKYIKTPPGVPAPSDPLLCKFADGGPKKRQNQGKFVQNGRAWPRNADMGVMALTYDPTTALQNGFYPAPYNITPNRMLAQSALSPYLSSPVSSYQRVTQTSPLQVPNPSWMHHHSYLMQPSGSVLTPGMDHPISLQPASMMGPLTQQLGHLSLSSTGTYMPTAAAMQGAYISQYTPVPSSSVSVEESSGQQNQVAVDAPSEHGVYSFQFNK
In short: as §1

SRSF3 = target: T6, SRSF3 (UniProt P84103)
T6 sequence: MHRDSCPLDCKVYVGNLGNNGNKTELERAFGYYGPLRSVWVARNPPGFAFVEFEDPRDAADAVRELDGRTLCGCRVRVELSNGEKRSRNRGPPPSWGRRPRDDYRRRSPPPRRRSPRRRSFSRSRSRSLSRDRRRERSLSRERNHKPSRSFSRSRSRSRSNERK
In short: as §1

PABPC1 = PABPC1 (UniProt P11940)
In short: as §1

Chain of PABPC1 (P11940 whole entry): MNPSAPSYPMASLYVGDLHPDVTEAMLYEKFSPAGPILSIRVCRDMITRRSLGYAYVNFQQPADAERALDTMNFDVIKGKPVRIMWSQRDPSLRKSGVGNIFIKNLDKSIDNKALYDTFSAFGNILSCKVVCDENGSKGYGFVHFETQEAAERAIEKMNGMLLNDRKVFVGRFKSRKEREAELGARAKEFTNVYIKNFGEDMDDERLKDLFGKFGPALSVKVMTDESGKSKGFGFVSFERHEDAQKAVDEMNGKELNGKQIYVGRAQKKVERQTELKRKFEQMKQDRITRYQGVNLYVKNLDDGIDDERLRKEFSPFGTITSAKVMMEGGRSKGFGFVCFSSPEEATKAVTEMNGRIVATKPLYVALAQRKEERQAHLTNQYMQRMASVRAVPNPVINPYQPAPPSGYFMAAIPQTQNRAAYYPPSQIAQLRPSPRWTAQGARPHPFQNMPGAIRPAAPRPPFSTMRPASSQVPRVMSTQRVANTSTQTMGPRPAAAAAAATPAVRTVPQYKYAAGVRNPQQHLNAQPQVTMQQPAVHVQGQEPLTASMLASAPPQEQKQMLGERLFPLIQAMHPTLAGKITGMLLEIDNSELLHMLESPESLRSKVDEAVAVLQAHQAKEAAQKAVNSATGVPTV

UAUUUAU
Kd (RBMS3): 97.3 nM | Kd (RBMS1): 114 nM | Kd (MEX3A): 277 nM | Kd (LSM4): 241 nM | Kd (RBMS2): 274 nM

CUGUCCU
Kd (SRSF3): 790 nM | Kd (PABPC1): 95.9 nM

AAUAAA
Kd (RBMS3): 153 nM | Kd (RBMS1): 156 nM | Kd (MEX3A): 536 nM | Kd (LSM4): 70.5 nM | Kd (SRSF3): 281 nM | Kd (RBMS2): 158 nM | Kd (PABPC1): 7490 nM
